Measured values reported in the domain aggregation screens of Martell et al. (2025).

Experiment: soluble fraction after stress (log2 fold change); higher = more stays soluble; pooled small domains, quantitative proteomics
Conditions: stress: pH 4
Method in brief: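 Aggregation propensity here comes from the fold change in the soluble amount of each small protein domain after acid stress, measured in pooled custom libraries by high-throughput quantitative proteomics. The acid stress was pH 4. On the log2 scale, higher values mean more of the domain stayed soluble.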

HMEPEVSNTYEKVLGMHHFSSTRSHQLHDLVRQANALELSLGEIESIAQSAKDGAQVISDIKHWMEPNRQ
soluble fraction (log2): -0.185

HMGGGTPEERLATLAAIAERQEMLLERLGPNNPLVSLGQYSRTLSRMVQLAGFKDASQYFNELPLDFQMPE
soluble fraction (log2): -0.437

HMRQNPESFLNHKVKKNESLESLTKKYELTENEIIFYNPLIQKIGLKKRMILKIPIYNNQNLVTKSVD
soluble fraction (log2): -0.161

HMTINQIDPASGRKVGYWIITGEMKPKEGFSPDNKIEEGIYVNSRKSGKWIKYWPNGNVRSEIIYKNGR
soluble fraction (log2): -0.0109

HMEIDMQEGIKTIILMMKEHNITPSEAMKIYKSANGDIHYISKIYNHFKNKGADNFVALMIKMVKPGEFIE
soluble fraction (log2): -0.398

HMGVPTEQEIGKRILAWRKLRGMTLQQLADKAGVGLTTIHNLETGLWYAKMPTYLYIAEALGVSLDALIYG
soluble fraction (log2): 0.0266

HMNPHIQFWSLLRRQPDYNSAYKDELKAMFVWQWSGEKTESLNEFYKTDPYRYKSMLMDMRNRAL
soluble fraction (log2): -0.354

HMEAKQMDAWIVSEAKRQGGKIEPAAAYELSRHTATDTSIASQEIAKLLMYVDFKRPVTREDVVELVSA
soluble fraction (log2): -0.0795

HMMEERVIEFANVLRRNGVRVSLAENMDAFRALKSLGISDPLLFRHALRATLIKRGSDIQPFEELFDFFFL
soluble fraction (log2): -1.08

HMNKMIDAPDLTGLSLEDAKLVLEANKLQLGTVSHEPSDKPEDVVISQDPMEGQEIQQGGKVNLVVSYGD
soluble fraction (log2): -0.104

HMSTPVPIEGQPTENLNLRDQPSTSGKILTTIPKGKTVTILSEKNANGWYKVSYNGKTGYVSGSYFKVTK
soluble fraction (log2): -0.14

HMNRKILVLLAGKEQITDNVSVMQSIHRYAFINTATINKAQHEILIEKEEIRQEALTLIHEFLK
soluble fraction (log2): 0.0276

HMQVSITGYLGGEKIGLFDDAKFKALAAKQGIAIDYRKAGSPAMMDADRKGMDYLFPSSRAAVEYGNAKGV
soluble fraction (log2): 0.144

HMTYPGSIALVNPKHEAFVQHYVATSGSRGQAAKLAGVTTTTARNLLQDVEATARIRYLNAQQFQ
soluble fraction (log2): 0.22

HMGEVVSAPMPGTILSIKVSQGQTVKRGQVLLILEAMKMENEIVAPRDGVVVQISTTQGASVETGAPLVVL
soluble fraction (log2): -0.118

HMVFSNLGSRGEEVRQIQTKLKELGYLQGNVDGIYGNQTKQAVTAFQRDHGLSADGIAGEKTLAALGIG
soluble fraction (log2): 0.105

HMQSEISRIGRILKERRLQLGYTQEYAAEKAGISYSYYTKIERGQQLPSLEVAMVLSKTFSLSMDRWL
soluble fraction (log2): -0.599

HMTGKVSHGERKSVLVSLAGSMRARGMSIDAVRAGLYADNEKRFDPPLDERDIEDVLNSAKKWGDP
soluble fraction (log2): -0.0814

HMYNSYALTARELELVNYVLKGNSRREMAEDSGLKENTVASYMKRLYRKIKVHSRKELKELFM
soluble fraction (log2): -0.422

HMHFENEETFVLPLVREGFSEQQQLEMVDRLLFDANTDNPRWIIDWMASELPSTQRELLLDLEKRLAEVRS
soluble fraction (log2): -0.358

HMLKPKDLHLGDSVRVLSLNLKGTVSSLPDTKGFLFVQMGIMRSKLHISDLQLIDEPVITAP
soluble fraction (log2): -0.314

HMETVRLSVDAQGAYYWNEQRVDDSALPDLLREASGRKPQPDLHIRGDKAVRYERVAEAMAAAQRAGLKKI
soluble fraction (log2): -0.178

HMSHGYVEMQAKDDQVLLAALKNHPWFEKVSIDEETGLTKAILTQPIEAEELNSMLFEKGIVLSHLVKRK
soluble fraction (log2): -1.2

HMETIGENIKTYRQKKGYTQEEVANRLHVTRQTISKWEKNYSIPDAEVLVKLADVLEVQTSQLLGV
soluble fraction (log2): ≥ 0.43

HMEWLENIKKLKKEKGLTNESLSEKSGISVGTLNKLLSGATTDPKLSTLRPLADALEVSLDELLAI
soluble fraction (log2): -0.187

HMTILTSSQRKALISKMIRQGGVESQSHLVKLLAREGVKVTQATASRDLEDLGATRVRDANGEFQYVIP
soluble fraction (log2): 0.0156

HMSNHYETLGVPRDASQEDIKRAYRRLARKLHPDVAGPGKAEEFKAVNEAYAVLSDEESRRMYDLGGDDAL
soluble fraction (log2): 0.145

HMEAGTVTVTHAAVYIRSGPGVSYPIAGKAAKNDTYTVLQKDGDWFQIRLPQGNTGWIAGWLVETGT
soluble fraction (log2): -0.133

HMELPVAVPHTELSPEALRGVVESFVLREGTDYGERDVPFEAKVAQVIRQLERGEARIMFDPVTQSVQIVT
soluble fraction (log2): -0.411

HMLEASVYTAEKSGDRLDAFLAEQAGITRSYAQKLIEGGQVTLGGVVPKKNYKLSAGEQVELILPEN
soluble fraction (log2): -0.00206

HMANSANARKSLVSKLIAGGKIASQSDLVKALKKQGIVVTQGTASRDLEDIGAIRVRNSEGEIVYALT
soluble fraction (log2): 0.108

HMEDELFSVARAAFPEYASKIHMNYGSTVQSIARQSGVLTVSETKQLNENQQISYLEYSNGAVVLALA
soluble fraction (log2): -0.306

HMETIGKRVRAARQELGLTMKQLHEQTGLSTGNISDIENDRNTPSVSSLVALGRALRRSLDWLLTGEE
soluble fraction (log2): -0.555

HMKLTPKQQQIYDFISSFADEHGYPPSVREIAQAVNLKSPATVHFHLKGLREAGYISQAEGKTRAITI
soluble fraction (log2): -0.136

HMLKIAENIYQRRKEKNITQEELADFMMVTKASVSKWETGQSYPDILLLPKLATFFNVTVDELIGYEPQ
soluble fraction (log2): -1.07

HMSIESPEEFNAKFPPGSEIYATNIQKNAIVQSPANAKGDVEILANSMRLTINFRFISKRDT
soluble fraction (log2): 0.334

HMGLNELQVKLNEAMQRLSLKHRTVVVMHDIEGIPHDEIAKIVGVSVGTIRSRLFYARRQLQADLGEY
soluble fraction (log2): -0.896

HMQERTVVKGVVVQVSRDEAYVDIGYKQEIPVSKRDLAVPAPDDARDVVKVGDEIDVYIKSLGGDNGG
soluble fraction (log2): -0.0346

HMRMLSEGAQRMLRGLAVLEEASADRLLELHQGDYPGFVRSLFALESAGLFQRNGSGTWIRR
soluble fraction (log2): -0.996

HMESPSGGHRIALAFDQGTARAVDATYARLTGAGYEGRTKPWDAPWGQRYATVFDPDGNSVDLFAALE
soluble fraction (log2): -0.544

HMNNEISINGNKIYFNKNISKVFIYDISGKLIKHKNNFNNNFIDLSEFNSAFYIIKALDINENYTTKKIFL
soluble fraction (log2): -0.597

HMPVTAQFDFSKVLAGRTLKDGEFSFVLKDKNGTVLQTKTNDASGKVAFDALIYKNNEVGEHKYTVEEVI
soluble fraction (log2): 0.294

HMLNDMYAVMEIRGQGGELIAKLINQDGSPFYVKKGTTLQSGHVIDEITTTYVRAEKAGAKDYLYF
soluble fraction (log2): -1.65

HMIENGILELKGKTGVAQTVLRPSGKVLIDDEIYDAVALTGYIEKADKVLVTKVEATQLYVEK
soluble fraction (log2): -0.289

HMNDPFVILGVSKDASQSEILEAYKQKRAYYQERVFDEGDEGAQAARMLTQLDDAYQQAMELSHES
soluble fraction (log2): 0.17

HMITGSIQPKNGKYYAVLNLYDHTGKRRPKWVSTGYTVKGNKKKAQEVLNELTRRYSAQLPPSK
soluble fraction (log2): 0.22

HMDDPQAELLARAVRRVALAAAERTRRNEYGGVYLGLFRQFGISSYRRTPPARLHEALEWLERWRGDLM
soluble fraction (log2): -0.378

HMILNPQELGERIRKLRLKRNKTQSYFADMLYISSSYLALIESGKRVPNLDLLIHIAKFTDVTLDYLVFG
soluble fraction (log2): -0.573

HMDEYTAVDSRLDLELAMKRLKPEEAEVLRLVFDYGLPQRAIAERLGVSQMSVSRMQRRAIGKLKRWLSDN
soluble fraction (log2): -0.678

HMAIRLIKASREFNVGISTIVEFLEKKGHAIDSDPNSKIPDELYQLIEKEFQTEGSVKKAAKQI
soluble fraction (log2): -0.335

HMSPAVSLITGKLGAETYYKQGLKKAKEKDYEGALDDLIKAYEFFPDKKIKTQVDKLASFLGKPPIL
soluble fraction (log2): 0.0374

HMQLSMLPYGFARRHGVLLVEQDEQPTLIHRAGITATVIAEVQRVAGQIDAWRLVDDARFDQQLAEVYRD
soluble fraction (log2): -1.41

HMQESVTVSAQALRRLLEKGDGDAALLYLALLRHHGTIQPRALAGELRWERPRIEAAEEALRQMGLIA
soluble fraction (log2): 0.121

HMSKLSLREIVKKFEEQIIQLHKRGLNHSEISREIVTKNSIDLGDSHIDSLRRAISVHLQTP
soluble fraction (log2): -0.201

HMVVKSPLEMAFDKFREMRKKIRKPMTERAEELIWKELSKLAGEDSDLKIEILEQSIRNGWQDVYAVK
soluble fraction (log2): -0.064

HMHHDDHNQQEEIKEKLLAMVADGERHHVTEVRQLDEDWDMVTKVMKELMDEEQLLMDGSYLILSA
soluble fraction (log2): -0.551

HMNSSTYIVTFKVDGEEDIVETYQWGDRIIVPEVEAKDDYVFIGWDAQIPEFMPERNLEFTAI
soluble fraction (log2): -1.67

HMTPVSQIATKDIEEKIDSLSDEYKDPFILHFKGFKYKEIADQLDIPIGTVKSRIFIARKKLIDLLPDY
soluble fraction (log2): -0.391

HMSGIVPAAPPLRPDLDIKWHTGDKVRHAKWGEGTIVSVKGEGEETELKIAFPGQGIRPFMQKYAPITR
soluble fraction (log2): 0.214

HMTPKVTVPDVTGQTFSSAKQILESLGFTVKQQGSTDETDQVIDQNPTSGEADKGATITLTTKSS
soluble fraction (log2): -0.139

HMELPMGTQLPPERELAQQMQVSRAVVNGGLAELAQQGFLEVRPRQGTFVADYRRKGNLSTLIAIMEY
soluble fraction (log2): 0.22

HMEFEYFQLRDHLYNLIMHPDKEKLKKDPDYLKLMSMAFSLLEDQNVGKDILEIAIKSIENFK
soluble fraction (log2): -0.674

HMQAQQYYMLLMNKATSALKIEALGANSNKAHQSFGTKTAGGSAVYWGILFNSNGKIYKIVG
soluble fraction (log2): -0.15

HMRTVAERYGLTAGQWRVLELLTQGKTNRQIAEMLDVTEGTVKIHVSAIFKAMKVTNRTQALLLAKKH
soluble fraction (log2): -0.522

HMREISSDELHSLFSADQRGDLVINETTRLSIEKLYALHTPEEREAKVNELSGVLPSEAHRQLVHFLDYFD
soluble fraction (log2): -1.54

HMTQEHDESVNLGKRLLDQALSRFGTSYRQLKKSEIKRILQSSGASTFKYILHQIGLGNRVPLAIANLIV
soluble fraction (log2): -0.0152

HMSEEVDVPDLVGMQLEEAEKSLEPLGLKLKIAKEIPNSEFEKGKIVDQKTKAGEKVKTGYTIEVTVSSG
soluble fraction (log2): -0.0107

HMEPEWVINTDGSNLNEILAIDEVDSRKTFSNDLQEVYRTFGIEAARQILVQEIDAVIESSGA
soluble fraction (log2): -0.675

HMTKYEKKIFEIVNASRDHLTAEQVLAALREEYPAVSQATVYNNLKKLTSDGLLRKLTLADSPDRYD
soluble fraction (log2): 0.211

HMTTTYEINDEMLKPLILEIFNKSKQRFGSTKIAPVLKREGYTASIAKVKTLMNELGIKPVNA
soluble fraction (log2): 0.206

HMSASAIYVRPKDVKEPEEVADYLSGVLELDREKLYKKITDKSQWIALIERKVDNDIAFDIRNKKFKGIEI
soluble fraction (log2): -0.784

HMEYYEDEELDRFRGRNSDQYSDAEIEEFNEILTTLRSEEVAGWIRSLQLREIALPDELKDDVILLVG
soluble fraction (log2): -1.51

HMVNEALDEFFVGLKNLYESATGKPAIAGAHFDGEPKTDFEKLMYLGYQIIRPAQAYPSALKAYERAIARS
soluble fraction (log2): -1.15

HMESAVDVFRSILKEKGVTEEEVRQVVAARGKYTLETPIDDYPNEFLYGYVIRYWDQIFDIIQQSREAK
soluble fraction (log2): -1.57

HMVKSYEVPDVSNLTVLEAEAKLQEMGFEIDEEQKEISSSDIESGRVVKTSPQAGSKRKEGAIITLYVSSG
soluble fraction (log2): -0.433
